Measured values reported in patent publication US20110165265A1 (FUNDACI GEN MICA CRG, published 2011).

B1: DcR1-Ig receptor chimera (R&D Systems) (Fc fusion, UniProt O14798 26-221, looked up, not shown: a dimerising Fc or GST)
chain: ATTARQEEVPQQTVAPQQQRHSFKGEECPAGSHRSEHTGACNPCTEGVDYTNASNNEPSCFPCTVCKSDQKHKSSCTMTRDTVCQCKEGTFRNENSPEMCRKCSRCPSGEVQVSNCTSWDDIQCVEEFGANATVETPAAEETMNTSPGTPAPAAEETMNTSPGTPAPAAEETMTTSPGTPAPAAEETMTTSPGTPA
B2: DcR2-Ig receptor chimera (R&D Systems) (Fc fusion, UniProt Q9UBN6 56-211, looked up, not shown: a dimerising Fc or GST)
chain: ATIPRQDEVPQQTVAPQQQRRSLKEEECPAGSHRSEYTGACNPCTEGVDYTIASNNLPSCLLCTVCKSGQTNKSSCTTTRDTVCQCEKGSFQDKNSPEMCRTCRTGCPRGMVKVSNCTPRSDIKCKNESAASSTGKTPAAEETVTTILGMLASPYH
B3: TRAIL variant D269H (114-281) (ligand)
chain: MVRERGPQRVAAHITGTRGRSNTLSSPNSKNEKALGRKINSWESSRSGHSFLSNLHLRNGELVIHEKGFYYIYSQTYFRFQEEIKENTKNDKQMVQYIYKYTSYPDPILLMKSARNSCWSKDAEYGLYSIYQGGIFELKENDRIFVSVTNEHLIDMHHEASFFGAFLVG
notes: All mutants are said to be of the length 114-281; also called rhTRAIL carrying mutation D269H; DR5-selective variant
B4: TRAIL variant D269HE195R (114-281) (ligand)
chain: MVRERGPQRVAAHITGTRGRSNTLSSPNSKNEKALGRKINSWESSRSGHSFLSNLHLRNGELVIHEKGFYYIYSQTYFRFQERIKENTKNDKQMVQYIYKYTSYPDPILLMKSARNSCWSKDAEYGLYSIYQGGIFELKENDRIFVSVTNEHLIDMHHEASFFGAFLVG
notes: All mutants are said to be of the length 114-281; also called TRAIL-DR5; DE

Key:
[1] = biological target: B4; experiment: cell-based or functional assay
[2] = biological target: wild-type TRAIL (recombinant human soluble TRAIL, amino acids 114-281) (human, UniProt P50591 114-281); experiment: cell-based or functional assay
Sequence of wild-type TRAIL (recombinant human soluble TRAIL, amino acids 114-281) (P50591 114-281 limits assumed): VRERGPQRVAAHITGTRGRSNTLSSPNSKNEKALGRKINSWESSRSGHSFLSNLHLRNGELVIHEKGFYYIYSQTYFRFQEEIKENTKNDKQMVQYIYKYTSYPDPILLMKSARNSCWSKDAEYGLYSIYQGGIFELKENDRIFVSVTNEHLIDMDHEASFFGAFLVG

[3] = biological target: B3; experiment: cell-based or functional assay
[4] = biological target: B2; experiment: SPR (Biacore), DcR2-Ig captured on a protein A-modified CM5 chip, response in RU against ligand concentration (pre-steady state)
[5] = biological target: B1; experiment: SPR (Biacore 3000, 37 °C), DcR1-Ig captured on protein A, pre-steady state
DR5-Ig = biological target: T1, DR5-Ig (UniProt O14763 54-182); experiment: not stated there (SPR by the context of paragraph 339)
T1 construct: also called sDR5; soluble recombinant DR5-Ig; not shown: Ig (Fc) part

[6] = biological target: death receptor 5 (DR5) on the cell surface (human, UniProt O14763 56-440); experiment: cell-based or functional assay

| block of ligand-induced apoptosis of Colo205 cells (Annexin V) after pre-incubation of the ligand with soluble receptor [1] [µg/mL] | block of ligand-induced apoptosis of Colo205 cells (Annexin V) after pre-incubation of the ligand with soluble receptor [2] [µg/mL] | block of ligand-induced apoptosis of Colo205 cells (Annexin V) after pre-incubation of the ligand with soluble receptor [3] | binding result [4] | fold reduction of binding compared to wtTRAIL [5] [fold] | fold increase in kon compared to wtTRAIL (DR5-Ig) [fold] | Binder | rate of receptor activation relative to wtTRAIL [6] [fold] |
| --- | --- | --- | --- | --- | --- | --- | --- |
| > 2 | 0.5 | > 2 µg/mL | – | – | – | B1 | – |
| – | – | 2 fold | – | – | – | B2 | – |
| – | – | – | binds | ~20 | – | B3 | – |
| – | – | – | binds | ~20 | < 5 | B4 | 17 |
